Kd data for 36 molecules are collected here from paper PMC10786891, “Massively parallel profiling of RNA-targeting CRISPR-Cas13d”.

Substitutions are numbered along the chain they refer to.

T1: EsCas13d, nuclease-dead (Eubacterium siraeum, UniProt B0MS50, R295A;H300A;R849A;H854A)
T1 sequence: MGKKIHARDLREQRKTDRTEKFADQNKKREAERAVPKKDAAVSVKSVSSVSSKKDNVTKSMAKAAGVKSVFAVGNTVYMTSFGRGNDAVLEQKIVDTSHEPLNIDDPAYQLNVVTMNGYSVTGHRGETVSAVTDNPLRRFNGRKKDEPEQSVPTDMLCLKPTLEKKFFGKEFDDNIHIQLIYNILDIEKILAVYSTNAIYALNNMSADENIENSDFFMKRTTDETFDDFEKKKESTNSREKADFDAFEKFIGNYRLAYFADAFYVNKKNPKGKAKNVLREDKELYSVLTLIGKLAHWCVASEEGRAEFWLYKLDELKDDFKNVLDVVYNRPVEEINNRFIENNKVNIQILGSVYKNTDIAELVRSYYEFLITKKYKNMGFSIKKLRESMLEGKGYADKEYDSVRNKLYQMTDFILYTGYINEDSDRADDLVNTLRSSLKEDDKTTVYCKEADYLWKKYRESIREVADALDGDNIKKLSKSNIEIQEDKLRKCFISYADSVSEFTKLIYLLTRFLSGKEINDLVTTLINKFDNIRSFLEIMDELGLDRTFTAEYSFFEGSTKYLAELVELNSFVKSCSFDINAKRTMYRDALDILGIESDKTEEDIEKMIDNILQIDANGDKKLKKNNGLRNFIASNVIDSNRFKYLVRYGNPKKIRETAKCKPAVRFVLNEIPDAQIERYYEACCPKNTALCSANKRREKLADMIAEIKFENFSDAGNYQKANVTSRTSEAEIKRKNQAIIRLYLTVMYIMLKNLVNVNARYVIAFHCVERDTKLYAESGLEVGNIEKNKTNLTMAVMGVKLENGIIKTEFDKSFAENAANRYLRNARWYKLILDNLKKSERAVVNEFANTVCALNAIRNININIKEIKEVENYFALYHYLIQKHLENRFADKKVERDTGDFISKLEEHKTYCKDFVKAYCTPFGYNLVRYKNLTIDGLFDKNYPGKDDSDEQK

B1: target 2 MT 5'PFS GUU 3'PFS ACA (mixed)
RNA 1: CACCCGUGCAAAAUUGCAGGGGUCUAAAACCUUCUCCAAAUUGUUUCAUCCU
RNA 2: GGGAAUGGAUCCACAUCUACGAAUUCGUUAGGAUGAAACAAUUUGGAGAAGACAAGAUCGGAAGAGCACACGU
B2: target 2 MT 5'PFS GUG 3'PFS ACG (mixed)
RNA 1: B1 RNA 1
RNA 2: B1 RNA 2 with U29G, A54G
B3: target 2 MT 5'PFS AGA 3'PFS AGA (mixed)
RNA 1: B1 RNA 1
RNA 2: B1 RNA 2 with G27A, U28G, U29A, C53G
B4: target 2 MT 5'PFS ACC 3'PFS UAG (mixed)
RNA 1: B1 RNA 1
RNA 2: B1 RNA 2 with G27A, U28C, U29C, A52U, C53A, A54G
B5: target 2 MT 5'PFS AGC 3'PFS ACU (mixed)
RNA 1: B1 RNA 1
RNA 2: B1 RNA 2 with G27A, U28G, U29C, A54U
B6: target 2 MT 5'PFS AGA 3'PFS AGC (mixed)
RNA 1: B1 RNA 1
RNA 2: B1 RNA 2 with G27A, U28G, U29A, C53G, A54C
B7: target 2 MT 5'PFS GUU 3'PFS ACG (mixed)
RNA 1: B1 RNA 1
RNA 2: B1 RNA 2 with A54G
B8: target 2 MT 5'PFS UUA 3'PFS AGA (mixed)
RNA 1: B1 RNA 1
RNA 2: B1 RNA 2 with G27U, U29A, C53G
B9: target 2 MT 5'PFS UUA 3'PFS AGC (mixed)
RNA 1: B1 RNA 1
RNA 2: B1 RNA 2 with G27U, U29A, C53G, A54C
B10: target 2 MT 5'PFS UUA 3'PFS AGG (mixed)
RNA 1: B1 RNA 1
RNA 2: B1 RNA 2 with G27U, U29A, C53G, A54G
B11: target 2 MT 5'PFS AGU 3'PFS CAU (mixed)
RNA 1: B1 RNA 1
RNA 2: B1 RNA 2 with G27A, U28G, A52C, C53A, A54U
B12: target 2 MT 5'PFS ACG 3'PFS UCC (mixed)
RNA 1: B1 RNA 1
RNA 2: B1 RNA 2 with G27A, U28C, U29G, A52U, A54C
B13: target 2 MT 5'PFS UUA 3'PFS CGC (mixed)
RNA 1: B1 RNA 1
RNA 2: B1 RNA 2 with G27U, U29A, A52C, C53G, A54C
B14: target 2 MT 5'PFS GUG 3'PFS ACA (mixed)
RNA 1: B1 RNA 1
RNA 2: B1 RNA 2 with U29G
B15: target 2 MT 5'PFS GUG 3'PFS ACU (mixed)
RNA 1: B1 RNA 1
RNA 2: B1 RNA 2 with U29G, A54U
B16: target 2 MT 5'PFS AAU 3'PFS UCA (mixed)
RNA 1: B1 RNA 1
RNA 2: B1 RNA 2 with G27A, U28A, A52U
B17: target 2 MT 5'PFS GUG 3'PFS CAC (mixed)
RNA 1: B1 RNA 1
RNA 2: B1 RNA 2 with U29G, A52C, C53A, A54C
B18: target 2 MT 5'PFS ACC 3'PFS UAC (mixed)
RNA 1: B1 RNA 1
RNA 2: B1 RNA 2 with G27A, U28C, U29C, A52U, C53A, A54C
B19: target 2 MT 5'PFS GUG 3'PFS ACC (mixed)
RNA 1: B1 RNA 1
RNA 2: B1 RNA 2 with U29G, A54C
B20: target 2 MT 5'PFS ACG 3'PFS UCU (mixed)
RNA 1: B1 RNA 1
RNA 2: B1 RNA 2 with G27A, U28C, U29G, A52U, A54U
B21: target 2 MT 5'PFS GUU 3'PFS ACC (mixed)
RNA 1: B1 RNA 1
RNA 2: B1 RNA 2 with A54C
B22: target 2 MT 5'PFS ACC 3'PFS UAU (mixed)
RNA 1: B1 RNA 1
RNA 2: B1 RNA 2 with G27A, U28C, U29C, A52U, C53A, A54U
B23: target 2 MT 5'PFS UCU 3'PFS UAC (mixed)
RNA 1: B1 RNA 1
RNA 2: B1 RNA 2 with G27U, U28C, A52U, C53A, A54C
B24: target 2 MT 5'PFS UAG 3'PFS UAA (mixed)
RNA 1: B1 RNA 1
RNA 2: B1 RNA 2 with G27U, U28A, U29G, A52U, C53A
B25: target 2 MT 5'PFS AGU 3'PFS ACG (mixed)
RNA 1: B1 RNA 1
RNA 2: B1 RNA 2 with G27A, U28G, A54G
B26: target 2 MT 5'PFS UCU 3'PFS UAA (mixed)
RNA 1: B1 RNA 1
RNA 2: B1 RNA 2 with G27U, U28C, A52U, C53A
B27: target 2 MT 5'PFS AGA 3'PFS CAU (mixed)
RNA 1: B1 RNA 1
RNA 2: B1 RNA 2 with G27A, U28G, U29A, A52C, C53A, A54U
B28: target 2 MT 5'PFS GUG 3'PFS CAG (mixed)
RNA 1: B1 RNA 1
RNA 2: B1 RNA 2 with U29G, A52C, C53A, A54G
B29: target 2 MT 5'PFS UUA 3'PFS CGG (mixed)
RNA 1: B1 RNA 1
RNA 2: B1 RNA 2 with G27U, U29A, A52C, C53G, A54G
B30: target 2 MT 5'PFS AGU 3'PFS ACU (mixed)
RNA 1: B1 RNA 1
RNA 2: B1 RNA 2 with G27A, U28G, A54U
B31: target 2 MT 5'PFS UAG 3'PFS UAG (mixed)
RNA 1: B1 RNA 1
RNA 2: B1 RNA 2 with G27U, U28A, U29G, A52U, C53A, A54G
B32: target 2 MT 5'PFS UAG 3'PFS UAC (mixed)
RNA 1: B1 RNA 1
RNA 2: B1 RNA 2 with G27U, U28A, U29G, A52U, C53A, A54C
B33: target 2 MT 5'PFS UUA 3'PFS CGA (mixed)
RNA 1: B1 RNA 1
RNA 2: B1 RNA 2 with G27U, U29A, A52C, C53G
B34: target 1 complement block 2-7 (mixed)
RNA 1: CACCCGUGCAAAAAUGCAGGGGUCUAAAACUGAGCGGAUAACCUCUCUAUGG
RNA 2: GGGAAUGGAUCCACAUCUACGAAUUCGUACCAUAGAGAGGUUAUGGCGAGACCGAGAUCGGAAGAGCACACGU
B35: target 1 insC 3' of 15,insC 3' of 3 (mixed)
RNA 1: B34 RNA 1
RNA 2: GGGAAUGGAUCCACAUCUACGAAUUCGUACCAUAGAGCAGGUUAUCCGCUCCACCGAGAUCGGAAGAGCACACGU
B36: target 1 insG 3' of 14,insG 3' of 9 (mixed)
RNA 1: B34 RNA 1
RNA 2: B35 RNA 2 with C38A, A39G, U45G, C46U, G48C, C49G, U50C, C51U

The data set concerns the target T1, EsCas13d, nuclease-dead. Description: crRNA (strand 1, pre-loaded); Mg2+; 40 mM Tris-HCl pH 7.5, 150 mM NaCl, 6 mM MgCl2, 1 mM DTT, 0.1% Tween-20, 0.2 mg/ml BSA; 25 C; 10 min per concentration, then washed. Conditions: tags: His6-TwinStrep-SUMO cleaved; N-terminal SNAP kept (SNAP-Surface 488); label: 3' end held by stalled T7 RNA polymerase.
Take B1: binding was characterised by a dissociation constant (Kd) of 17.5 ± 2.3 nM.
In turn, B2 had a Kd of 13.1 ± 0.8 nM.
In turn, B3 had a Kd of 4.9 ± 0.7 nM.
The same measure for B4: 4.6 ± 0.8 nM; for B5: 17 ± 6 nM.
As for B6, the figure is 5.6 ± 1.2 nM; as for B7, 17.5 ± 1.4 nM.
Molecule B8 displayed a dissociation constant (Kd) of 19.4 ± 3.2 nM.
As for B9, the figure is 19.3 ± 2.2 nM; as for B10, 23.1 ± 3 nM; as for B11, 11.1 ± 2.7 nM.
In turn, B12 gave an equilibrium dissociation constant (Kd) of 34 ± 15 nM. Against the preceding molecule, the Kd is about 3.1-fold higher.
Take B13: binding was characterised by a dissociation constant (Kd) of 48 ± 10 nM.
The same measure for B14: 10.3 ± 0.9 nM.
As for B15, the figure is 12.9 ± 0.7 nM; as for B16, 10.4 ± 3.5 nM.
As for B17, the figure is 10.6 ± 1 nM.
With B18, the dissociation constant (Kd) was determined as 12 ± 5 nM.
As for B19, the figure is 20.8 ± 2.1 nM; as for B20, 23 ± 7 nM; as for B21, 18.1 ± 3 nM.
The same measure for B22: 6.5 ± 1.4 nM.
As for B23, the figure is 12.8 ± 2.5 nM; as for B24, 2.8 ± 0.4 nM.
Molecule B25 showed an equilibrium dissociation constant (Kd) of 13.8 ± 1.7 nM.
B26 gave a Kd of 12.8 ± 3.2 nM.
With B27, the Kd is 8 ± 1.9 nM.
The same measure for B28: 10.5 ± 0.8 nM.
As for B29, the figure is 20.9 ± 2.1 nM; as for B30, 22 ± 7 nM.
As for B31, the figure is 3.7 ± 0.4 nM.
As to B32, the dissociation constant Kd was 2.65 ± 0.29 nM.
The same measure for B33: 24 ± 4 nM; for B34: 13.8 ± 0.7 nM.
As for B35, the figure is 17.3 ± 0.9 nM; as for B36, 21.5 ± 1.5 nM.

For orientation: Kd means the concentration at which binding is half-saturated.
